Measured values reported in the DeepSol protein solubility set.

Assay: soluble on expression in E. coli; label from the status in PepcDB or PDB records

Row | Sequence | soluble on expression in E. coli
1 | MSLKIKSIKAITLSMPFSHGGKKVIFHGKEWKSLEFNLVKVETDKGIIGWGEAFGYTSWKAVKIAIEDMVAPLLVGKDMTNIPELILILQKSLHLFGRYGITMFAISGVEIALWDALGKEKNKPIHELLGKKNKDLFKAYSSLFRYGDPKIVEQKCKQSLDDGYQAIKLHEIENNCIEAGRKGTGNLPLMLDTNCPWTYEETLAKKNFLQEMRLTWLEEPIYPPEDYQTLAKLKKELDIPIACGENACTEFEFKSIIDQNAVTYVQPSVIKVGGIYEMFKIIQHAEKNNILVMPHTAYFGPGFLATLQLASLMKNETYIERFYLDIDQEFYPNFKRALNGKYKLPSGPGLGIDLDYKKLSKYEIEGHHHHHH | soluble
2 | MGSDKIHHHHHHMKKIAIFCHNFFSNGTVKIALSQAEVLQEAGQDVHLFVFHKEGDFMPPENVTIHYLYDAGQKPSLQEQRQHLKAKVAEAEQSGKFSLFLSNSTDCDVVVSGCDFEPCYYFCHCALKQELLMELKRGPVHFWRRWKKAKALIGKKIITVSNGIADELRATSWLKPQSVQTIYNPFRLEEIRKKTQEVIAEIPNVPYMIHVGRVTRQKRHDILFKALRDMPTAPKLVLLCNRPKKARKLAKKYGVEHRIITPGFQHNPYAWIAKAELMLLSSDFEGLPTVVIESLACGTPVVSTDCPHGPNEILTGHLAQYLVPVRQPALLAQKALECLASPPALDNLEILKAVDSQYIAAQYINLAQ | not soluble
3 | FDSFKIEGRAKNADYVMRTTKIYREAIDSVLDGSYYDKLEYFKKELQKVYNRSYDTGFYFRDINKNHDFQYEIEGNASKYRKIEIGRVVNFYKKVSVAEIELWHDLKIGDTILIIGKTTGCVEEVVKSMQINHKDVEIAKKGERVGVKLNHLVREGDRVYLLKET | not soluble
4 | MGSDKIHHHHHHMIGAWCFLDHAGPVTFPAGNGLDVGPHPHIGLQTFTWMIEGTMMHTDSLGSKQLIRPKQVNLMTAGHGISHTEVAPDTETQMHAAQLWIALPDHKRNMDPKFEHYPDLPVVEKDGLEFTVLVGEYLETTSPVVVHTPLVGVDLIATQDTKTRIPLNPEFEYGFMALDGVAHVNGHELTADNMVVLDTGLNEIEIEVKKGNRVLLIGGEPFETPILLWWNFVARTMDDLKEAREQWVNHDVRFGEIPDYVGARLEAPVLPDQMRASK | not soluble
5 | MDKGLSRLVELLNARGASMEEMVRLLEEERASIVALQAERLQAAVEQKVQVAARMEALDGDCRRVIADEARVRGLGEATLSPLLAGNPSPEKTELAGLQTKLSTLAQEIKGMIADNRRLLETSMVTVGRSLAFFQSRLTVAETYGNSGSMVERSSGGILRKEI | not soluble
6 | MRKITSVSVGEQLDSFITRMVQSGRYGSASEVMRSALRLLEQQESRDEAVRNAVIEGLESGESSMTLRDIAAERKQKHRV | soluble
